Columns and labels:
[1] = molecular target: FLAG-mLangerin.ECD (mouse) (UniProt Q9CS74); assay: Western blot, purified protein in two-fold dilutions, 1 µg/ml antibody
[2] = molecular target: FLAG-mSIGN-R1.ECD (mouse) (UniProt Q9CS74); assay: Western blot, 293T lysate in two-fold dilutions
[3] = molecular target: both N-terminal and C-terminal FLAG tagged proteins; assay: Western blot, serial dilutions

Substance | lowest amount of purified protein detected by Western blot [1] | fold fewer cells detectable than mAb M2 [2] | times better detection than mAb M2 [3] | fold lower detectable amount than mAb M2 [1]
mouse anti-FLAG mAb M2 (ANTI-FLAG M2, Sigma-Aldrich) (antibody) | 100 ng | – | – | –
rat anti-FLAG mAb L5 (antibody) | 25 ng | 8 fold | 2 to 8 times | 4 fold

Source: patent US20090098608A1
